Assay: yeast display, Sf9 membrane polyspecificity reagent, FACS + sequencing; frameworks hold sequencing errors
Summary of the method: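 A nanobody's polyreactivity label depends on the gate it was sorted from. Yeast display cells were stained with 10% biotinylated, detergent-solubilized Sf9 membrane reagent for 1 hour at 4 °C, enriched on streptavidin microbeads and sorted by FACS. The low and high (top ~1%) gates were set on anti-HA fluorescence for expression and streptavidin fluorescence for reagent binding.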

| Sequence | polyreactivity (PSR sort gate) |
| --- | --- |
| QVQLVESGGGLVQAGGSLRLSCAASGRTFPVYAMGWYRQAPGKERELVATIRRRDGSTYADSVKGRFTISRDNAKNTVYLQMNSLKPEDTAVYYCNAAYSQATPWYYAWYDYCGQGTQVTVSS | high polyreactivity |
| QVQLVESGGGLVQAGGSLRLSCAASGRTFPWYTMGWYRQAPGKERELVAAITRSSGSAYYADSVKGRFTISRDTAKNPVYLQMNSLKQEDTAVYYCAARYWVAGFRGRPYDYWGQGTQVTVSS | high polyreactivity |
| QVQLVESGGGLVQAGGSLRLSCAASGRTFPWYVMGWYRQAPGKERELVAAISSGGGKYYADSVKGRFTISRDNAKNTVFLQMNSLKPEDTAVYYCAGRLYYRRSFVREMYYWGQGSQVTVSS | high polyreactivity |
| QVQLVESGGGLVQAGGSLRLSCAASGRTFPYKAMGWYRQAPGKERELVAVISSGGGRTYYADSVKGRFTISRDNAKNTVYLQMNSLKPEDTAVYYCNKGGYAIRYDYYWGQGTQVTVSS | high polyreactivity |
| QVQLVESGGGLVQAGGSLRLSCAASGRTFPYNAMGWYRQAPGKERELVAAITSSGGSTYYADSVKGRFTISRDNAKNTVYLQMNSLKPEDTAVYYCAKGYYSPNYYYWGQGTQVTVSS | high polyreactivity |
| QVQLVESGGGLVQAGGSLRLSCAASGRTFPYNVMGWYRQAPRKERELVARITRGGSTDYADSVKGRFTISRDNAKNTVYLLMNSLKPEDTAVYYCAAAIGHFERFYWGQGTQVTVSS | low polyreactivity |
| QVQLVESGGGLVQAGGSLRLSCAASGRTFPYYAMGWYRQAPGKERELVAAISSSGGSTYYADSVKGRFTISRDNAKNTVNLQMNSLKPEDTAVYYCAARAPYSYSGYGYWGQGTQVTVSS | high polyreactivity |
| QVQLVESGGGLVQAGGSLRLSCAASGRTFPYYAMGWYRQAPGKERELVATITRGGSTYYADSVKGRFTISRDNAKNTVYLQMNSLKPEDTAVYYCNADYWGHRFYFPGRRDYWGQGTQVTVSS | low polyreactivity |
| QVQLVESGGGLVQAGGSLRLSCAASGRTFQDYAMGWYRQAPGKERELVAVINSGGSTYYADSVKGRFTISRDNAKNTVYLQMNSLKPEDTAVYYCAKGYWFYPWYHGYYWGQGTQVTVSS | high polyreactivity |
| QVQLVESGGGLVQAGGSLRLSCAASGRTFQFYAMGWYRQAPGKERELVAAITSGGSTYYADSVKGRFTISRDNAKNTVYLQMNSLKPEDTAVYYCNAKYNGYYRRFSEYDYWGQGTQVTVSS | high polyreactivity |
| QVQLVESGGGLVQAGGSLRLSCAASGRTFQGYTMGWYRQAPGKERELVAAITGGVGSTYYADSVKGRFTISRDNAKNTVYLQMNSLKPEDTAVYYCNTVSYGYTDLYIFYTGYYYWGQGTQVTVSS | low polyreactivity |
| QVQLVESGGGLVQAGGSLRLSCAASGRTFQIYAMGWYRQAPGKERELVAAISRRGGSTYYADSVKGRFTISRDNAKNTVYLQMNSLKPEDTAVYYCNVVHWRGEYSYAGYDYWGQGTQVTVSS | high polyreactivity |
| QVQLVESGGGLVQAGGSLRLSCAASGRTFQKNTMGWYRQAPGKERELVAAIDYSATTTYYADSVKGRFTSSRDNAKNTVYLQMNSLKPEDTAVYYCAARWSYPRWEFDYWGQGTQVTVSS | high polyreactivity |
| QVQLVESGGGLVQAGGSLRLSCAASGRTFQKYVMGWYRQEPGKEREIVAAISGGGGRTYYADSVKGRFTISRDNAKNTVYLQMNSLKPEDTAVYYCAARGLGKELDRFYYWGQGTQVTVSS | high polyreactivity |
| QVQLVESGGGLVQAGGSLRLSCAASGRTFQNNAMGWYRQAPGKERELVAAISRSGASTYYADSVKGRFTISRDNAKNTVYLQMNSLKPEDTAVYYCAARYQRTAYDYWGQGTQVTVSS | low polyreactivity |
| QVQLVESGGGLVQAGGSLRLSCAASGRTFQPYAMGWYRQAPGKERELVAAITSIGGSTFYADSVKGRFTISRDNAKNTVYLQMNSLKPEDTAVYYCARRGYYRSIWERDYWGQGTQVTVSS | low polyreactivity |
| QVQLVESGGGLVQAGGSLRLSCAASGRTFQQNAMGWYRQAPGKERELVAAINSRGGRTYYADSVKGRFTISRDYAKNTVYLQMNSLKPEDTAVYYCAARYYWGQGTQVTVSS | high polyreactivity |
| QVQLVESGGGLVQAGGSLRLSCAASGRTFQRNAMGLYRQEPGKERELVAAISTRGGSTYYADSVKGRFTISRDNAKNTVYLQMNSLKPEDTAVYYCAKDPTLTRGYKEGGGYDYLGQGTQVTVSS | high polyreactivity |
| QVQLVESGGGLVQAGGSLRLSCAASGRTFQVYAMGWYRQAPGKERELVAAISSSGGITYYADSVKGRFTISRDNAKNTVYLQMNSLKPEDTAVYYCNTLYVSSNEYWGQGTQVTVSS | high polyreactivity |
| QVQLVESGGGLVQAGGSLRLSCAASGRTFQWYTMGWYRQAPGKERELVAAISWSGTSTYYADSVKGRFTISRDIAKNTVYLQMNILNPEDTAVYYCAAEVIGRYYRLDYWGQGPQVTVSS | low polyreactivity |
| QVQLVESGGGLVQAGGSLRLSCAASGRTFQWYTMGWYRQAPGKERELVAGISWRGGSTYYADSVKGRFTISRDNAKNTVYLQMNSLKPEDTAVYYCAALASRLTGRDYWGQGTQVTVSS | high polyreactivity |
| QVQLVESGGGLVQAGGSLRLSCAASGRTFQYNAMGWYRQAPGKERELVAAISWSGGSTYYADSVKGRFTISRDNAKNTVYLQMNSLKPEDTAVYYCNARTLFKWRHGHYYAYDYWGQGTQVTVSS | high polyreactivity |

| Sequence | polyreactivity (PSR sort gate) |
| --- | --- |
| QVQLVESGGGLVQAGGSLRLSCAASGRTFQYYAMGWYRQAPGKERELVAAITSGGSTYYADSVKGRFTISRDNAKNTVYLQMNSLKPEDTAVYYCAATFYYSGHDDYWGQGTQVTVSS | low polyreactivity |
| QVQLVESGGGLVQAGGSLRLSCAASGRTFQYYAMGWYRQAPGKERELVAAITSGGSTYYADSVKGRFTISRDNAKNTVYLQMNSLKTEDTAVYYCAADFLYYSSGGKMDYWGQGTQVTVSS | low polyreactivity |
| QVQLVESGGGLVQAGGSLRLSCAASGRTFQYYAMGWYRQAPGKERELVARINRSGGSTYYADSVKGRFTISRDNAKNTVYLQMNSLKPEDTAVYYCAADYLSRSPAYEHYYWGQGTQVTVSS | high polyreactivity |
| QVQLVESGGGLVQAGGSLRLSCAASGRTFQYYTMGWYRQAPGKERELVAAITWRGGTTYYADSVKGRFTISRDNAKNTVYLQMNSLKPEDTAVYYCAAYSPDYGFDYWGQGTQVTVSS | high polyreactivity |
| QVQLVESGGGLVQAGGSLRLSCAASGRTFRANAMGWYRQAPGKERELVAAISQRGGNTYYADSVKGRFTISRDNAKNTVYLQMNSLKPEDTAVYYCAADITTYRRGRYEYEYWGQGTQVTVSS | high polyreactivity |
| QVQLVESGGGLVQAGGSLRLSCAASGRTFRANAMGWYRQAPGKERELVAAITWDGGSTYYADSVKGRFTISRDNAKNTVYLQMNSLKPEDTAVYYCNTDPYLWGQGTQVTVSS | low polyreactivity |
| QVQLVESGGGLVQAGGSLRLSCAASGRTFRANTMGWYRQAPGKERELVAAINWSGGSTYYADSVKGRFTISRDNAKNTVYLQMNSLKPEDTAVYYCAKRVSVSYRKSTYDYWGQGTQVTVSS | high polyreactivity |
| QVQLVESGGGLVQAGGSLRLSCAASGRTFRAYAMGWYRQAPGKERELVAAITSGGSTYADSVKGRFTISRDNAKNTVYLQMNSLKPEDTAVYYCAADGYKLFYSKFRYVQYGYWGQGTQVTVSS | high polyreactivity |
| QVQLVESGGGLVQAGGSLRLSCAASGRTFRAYAMGWYRQAPGKETELVASISRRGGSTYYADSVKGRFTISRDNAKNTVYLQMNSLKPEDSAVYYCAASDNYLQYDYWGQGTQVTVSS | high polyreactivity |
| QVQLVESGGGLVQAGGSLRLSCAASGRTFRAYVMGWYRQAPGKERELVAAFTGDGGSTYYADSVKGRFTISRDNAKNTVYLQMNSLKPEDTAVYYCAAGYVTVYGYYEYWGQGTQVTVSS | high polyreactivity |
| QVQLVESGGGLVQAGGSLRLSCAASGRTFRDYTMGWYRQAPGNERELVAAITSTGDTNYADSVKGRFTISRDNAKNTVYLQMNSLKPEDTALNYCATQTGEEYQAPLIYDYWGQGTQVTVSS | low polyreactivity |
| QVQLVESGGGLVQAGGSLRLSCAASGRTFRFNAMGWYRQAPGKESELVAAISSSGRTYYADSVKGRFTISRDNAKNTVYLQMNSLKPEDTAVYYCNKDPYLKLKMDYWGQGTQVTGSS | high polyreactivity |
| QVQLVESGGGLVQAGGSLRLSCAASGRTFRFYALGWYRQAPGKEREFVAAISRSVGSTYYADSVKGRFTISRDNAKHTVYLQMNSLKPEDTAVYYCAARVFRGLGEYYWGQGTQVTVSS | high polyreactivity |
| QVQLVESGGGLVQAGGSLRLSCAASGRTFRFYAMGWYRQAPGKERELVAAISASGGGTYYADSVKGRFTISRDNAKHTVYLQMNCLKPEDTAVYYCATRRSYKYYWGQGTQVTVSS | high polyreactivity |
| QVQLVESGGGLVQAGGSLRLSCAASGRTFRGNAMGWYRQAPGKERELVATITFSGGSTYYADSVKWRFTISRDNAKNTVYLQMNSLKPEDTAVYYCAVRGLHLVWVPFGYDYWGQGTQVTVSS | low polyreactivity |
| QVQLVESGGGLVQAGGSLRLSCAASGRTFRGYAMGWYRQAPGKEREFVAAITWTSGSTYYADSVKGRFTISRDNAKNTVYLQMNSLKPEDTAVYYCAARVYSQALRLWGNNYWGQGTQVTVSS | high polyreactivity |
| QVQLVESGGGLVQAGGSLRLSCAASGRTFRGYAMGWYRQAPGKERELVAAITSGGSTNYADSVKGRFTISRDNAKNTVYLQMNSLKPEDTAVYYCAAGRSTGQYRYYYWGQGTQVTVSS | high polyreactivity |
| QVQLVESGGGLVQAGGSLRLSCAASGRTFRGYAMGWYRQAPGKERELVAAITWSGGRTYYADSVKGRFTISRDNAKNTVYLQMNSLKPEDTAVYYCATSPGRWGWGYDYEYWGQGTQVTVSS | low polyreactivity |
| QVQLVESGGGLVQAGGSLRLSCAASGRTFRGYSMGWYRQAPGKERELVAAISTNGGSTRYADSVKGRFTISRDNSKNTVYLQMNSLKPEDTAVYYCARRDYWGQGTQVTVSS | high polyreactivity |
| QVQLVESGGGLVQAGGSLRLSCAASGRTFRHNALGWYRQAPGKERELVAAISKSGGRTYYADSVKGRFTISRDNAKNTVYLQMNSLKPEDTAVYYCAAPLYVSTSGEVGYWGQGTQVTVSS | high polyreactivity |
| QVQLVESGGGLVQAGGSLRLSCAASGRTFRINAMGWYRQAPGKERELVAAINDGGDTYADSVKGRFTISRDNANNTVYLQMNSLKPEDTAVYYCAAPLGGGARWGRWWLYDSWGQGTQVTVSS | low polyreactivity |

Reference: the nanobody polyreactivity screen of Harvey et al. (2022)
